# In patent publication US20240124607A1 (Merck Sharp & Dohme, published 2024):
# Numbering of substitutions follows the chain as printed.
# T1: Human CEACAM6 (human, UniProt P40199 35-320, limits assumed)
# T1 sequence (looked up): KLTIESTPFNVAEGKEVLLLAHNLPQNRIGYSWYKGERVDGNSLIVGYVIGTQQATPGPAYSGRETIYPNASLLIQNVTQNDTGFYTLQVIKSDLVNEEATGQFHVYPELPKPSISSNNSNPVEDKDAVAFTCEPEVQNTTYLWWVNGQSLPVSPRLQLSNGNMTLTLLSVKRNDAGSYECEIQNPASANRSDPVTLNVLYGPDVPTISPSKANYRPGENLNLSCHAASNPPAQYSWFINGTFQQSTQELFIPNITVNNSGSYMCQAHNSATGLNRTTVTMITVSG
# T2: CEACAM5 Nterm IgV-His (human, UniProt P06731 35-144)
# T2 construct: also called N-term domain of hCEACAM5
# T2 sequence: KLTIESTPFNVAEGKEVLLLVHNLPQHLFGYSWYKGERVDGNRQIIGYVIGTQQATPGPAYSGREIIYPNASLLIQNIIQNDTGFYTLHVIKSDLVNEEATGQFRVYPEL
# T3: CEACAM5 N-A1-B1-His (human, UniProt P06731 35-322, limits assumed)
# T3 sequence: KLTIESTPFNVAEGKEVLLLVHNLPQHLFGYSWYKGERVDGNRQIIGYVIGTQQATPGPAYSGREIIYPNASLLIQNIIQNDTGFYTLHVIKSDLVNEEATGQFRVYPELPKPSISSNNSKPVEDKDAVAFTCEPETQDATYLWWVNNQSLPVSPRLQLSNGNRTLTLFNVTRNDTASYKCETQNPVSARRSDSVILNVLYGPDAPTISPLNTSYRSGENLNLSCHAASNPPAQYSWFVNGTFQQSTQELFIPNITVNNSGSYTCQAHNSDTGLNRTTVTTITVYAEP
# B1: AB0466 F3' CEACAM5 TriNKET (bispecific antibody, human IgG1, kappa)
# chain: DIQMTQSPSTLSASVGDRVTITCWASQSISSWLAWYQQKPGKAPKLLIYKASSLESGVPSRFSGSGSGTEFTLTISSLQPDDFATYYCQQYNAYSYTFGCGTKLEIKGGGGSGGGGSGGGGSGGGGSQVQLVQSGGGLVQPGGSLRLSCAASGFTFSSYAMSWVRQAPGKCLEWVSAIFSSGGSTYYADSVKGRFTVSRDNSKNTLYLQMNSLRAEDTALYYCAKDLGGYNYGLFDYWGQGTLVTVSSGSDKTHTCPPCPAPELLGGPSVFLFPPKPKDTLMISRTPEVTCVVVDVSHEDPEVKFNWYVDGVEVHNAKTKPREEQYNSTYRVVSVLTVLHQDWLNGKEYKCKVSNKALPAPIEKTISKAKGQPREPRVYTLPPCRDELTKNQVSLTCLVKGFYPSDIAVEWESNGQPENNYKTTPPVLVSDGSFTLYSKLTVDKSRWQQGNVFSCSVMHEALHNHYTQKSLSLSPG
# heavy: EVQLVESGGGLVKPGGSLRLSCAASGFTFSSYSMNWVRQAPGKGLEWVSSISSSSSYIYYADSVKGRFTISRDNAKNSLYLQMNSLRAEDTAVYYCARGAPIGAAAGWFDPWGQGTLVTVSSASTKGPSVFPLAPSSKSTSGGTAALGCLVKDYFPEPVTVSWNSGALTSGVHTFPAVLQSSGLYSLSSVVTVPSSSLGTQTYICNVNHKPSNTKVDKKVEPKSCDKTHTCPPCPAPELLGGPSVFLFPPKPKDTLMISRTPEVTCVVVDVSHEDPEVKFNWYVDGVEVHNAKTKPREEQYNSTYRVVSVLTVLHQDWLNGKEYKCKVSNKALPAPIEKTISKAKGQPREPQVCTLPPSRDELTENQVSLTCLVKGFYPSDIAVEWESNGQPENNYKTTPPVLDSDGSFFLYSWLTVDKSRWQQGNVFSCSVMHEALHNHYTQKSLSLSPG
# light: DIQMTQSPSSVSASVGDRVTITCRASQGISSWLAWYQQKPGKAPKLLIYAASSLQSGVPSRFSGSGSGTDFTLTISSLQPEDFATYYCQQGVSFPRTFGGGTKVEIKRTVAAPSVFIFPPSDEQLKSGTASVVCLLNNFYPREAKVQWKVDNALQSGNSQESVTEQDSKDSTYSLSSTLTLSKADYEKHKVYACEVTHQGLSSPVTKSFNRGEC
# B2: AB0621 F3' CEACAM5 TriNKET (bispecific antibody, human IgG1, kappa)
# chain: DIVMTQSPDSLAVSLGERATINCKSSHSLLYGNFQNNYLAWYQQKPGQPPKLLIYWASTRESGVPDRFSGSGSGTDFTLTISSLQAEDVAVYYCQQYYSYPYTFGCGTKLEIKGGGGSGGGGSGGGGSGGGGSQVQLVQSGAEVKKPGASVKVSCKASGYTFTAYTIHWVRQAPGQCLEWMGYINPSSGYTEYNQKFKDRTTLTADTSISTAYMELSRLRSDDTAVYYCTREGGLLWFDYWGQGTLVTVSSGSDKTHTCPPCPAPELLGGPSVFLFPPKPKDTLMISRTPEVTCVVVDVSHEDPEVKFNWYVDGVEVHNAKTKPREEQYNSTYRVVSVLTVLHQDWLNGKEYKCKVSNKALPAPIEKTISKAKGQPREPRVYTLPPCRDELTKNQVSLTCLVKGFYPSDIAVEWESNGQPENNYKTTPPVLVSDGSFTLYSKLTVDKSRWQQGNVFSCSVMHEALHNHYTQKSLSLSPG
# heavy: B1 heavy
# light: B1 light
# B3: AB0411 F3' CEACAM5 TriNKET (bispecific antibody, human IgG1, kappa)
# chain: DIQLTQSPATLSVSPGERATLSCRASQSVSSSYLAWYQQKPGQAPRLLIYGASSRATGIPDRFSGSGSGTDFTLTISRLEPEDFAVYYCQQYNNWPLTFGCGTKVEIKGGGGSGGGGSGGGGSGGGGSQVQLVQSGGGLVQPGGSLRLSCAASGFTFTSYAMSWVRQAPGKCLEWVSAISGTGDSTFYADSVKGRFTFSRDNSKNTLYLQMNSLRAEDTAVYYCAKDLGWLQYGLFDYWGQGTLVTVSSGSDKTHTCPPCPAPELLGGPSVFLFPPKPKDTLMISRTPEVTCVVVDVSHEDPEVKFNWYVDGVEVHNAKTKPREEQYNSTYRVVSVLTVLHQDWLNGKEYKCKVSNKALPAPIEKTISKAKGQPREPRVYTLPPCRDELTKNQVSLTCLVKGFYPSDIAVEWESNGQPENNYKTTPPVLVSDGSFTLYSKLTVDKSRWQQGNVFSCSVMHEALHNHYTQKSLSLSPG
# heavy: B1 heavy
# light: B1 light
# B4: AB0264 F3' CEACAM5 TriNKET (bispecific antibody, human IgG1, kappa)
# chain: B2 chain with S210P
# heavy: B1 heavy
# light: B1 light
# Experiments:
# Human CEACAM6 = biological target: T1, Human CEACAM6; experiment: SPR, 37C, pH 7.4
# Experimental: To determine the affinity and cross-reactivity of CEACAM5 TriNKET molecules, AB0411, AB0466, or AB0621 TriNKETs were captured using an anti-human Fc capture antibody (Cytiva, #BR100839) immobilized onto a Biacore CM5 standard surface sensor chip following manufacturer instructions. Human or cynomolgus CEACAM5 were titrated over captured AB0411, AB0466, and AB0621 as 2-fold serial dilutions starting from 300 nM. Association was monitored for 300 sec and dissociation was monitored for 600 sec. The assay was run at 37° C. at pH 7.4 and 6.0. The surface of the CM5 chip was regenerated with 10 mM glycine pH 1.5 for 20 sec at 100 μL/min.
# Binding to human and cynomolgus CEACAM1, 6, and 8 was assessed by SPR using the same protocol as for CEACAM5 but using up to 600 and 1200 nM for titration of each protein. There were no detectable binding signals at these concentrations for AB0621. In contrast, reproducible weak binding signals were detected for AB0411 and AB0466, but these two TriNKETs also bound to different epitope(s) on the N-terminus of CEACAM5. Typical weak binding sensorgrams for AB0411 and AB0466 against human CEACAM1 and 6 indicated weak but notable signals compared to AB0621. […]
# CEACAM5 Nterm IgV-His = biological target: T2, CEACAM5 Nterm IgV-His; experiment: SPR, hFc capt, 37C
# Experimental: (§1) The various hCEACAM5 protein domains were titrated over the captured antibody at 50 μL/min for 180 sec of association and 300 sec of dissociation. The assay was run at 37° C. in HBS-EP+ running buffer, pH 7.4. The surface of the CM5 chip was regenerated using 3M MgCl₂.
# CEACAM5 N-A1-B1-His = biological target: T3, CEACAM5 N-A1-B1-His; experiment: SPR, hFc capt, 37C
# Experimental: as §1
# [1] = biological target: T4, human CD16A (FcγRIIIA) V158 (human, UniProt P08637 17-208, limits assumed, biotinylated in the assay of Table 21); experiment: SPR, biotin-CD16A on SA chip, 25C, pH 6.0
# T4 construct: also called CD16A (V158/V176)
# T4 sequence (P08637 17-208 F176V limits assumed): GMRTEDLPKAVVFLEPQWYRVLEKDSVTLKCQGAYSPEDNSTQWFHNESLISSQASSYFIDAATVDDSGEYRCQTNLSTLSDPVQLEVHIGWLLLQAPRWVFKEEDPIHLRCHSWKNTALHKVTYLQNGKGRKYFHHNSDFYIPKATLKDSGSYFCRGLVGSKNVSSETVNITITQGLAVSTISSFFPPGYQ
# Experimental: (§2) Binding to human and cynomolgus CD16A was assessed using biotinylated CD16A captured on a streptavidin (SA) sensor chip (Cytiva, #BR100531). AB0411, AB0466, or AB0621 was titrated from 1500 nM at 25° C. at 30 μL/min for 150 sec association followed by 300 sec dissociation. The surface of the chip was regenerated with 2 mM sodium hydroxide for 5 sec at 30 μL/min. Running buffer was HBS-EP+. […] The V158 isoform bound ˜2- to 3-fold tighter than the F158 isoform as expected.
# Cyno FcγRIIIA = biological target: T5, Cyno FcγRIIIA (cynomolgus monkey, UniProt Q8SPW2 17-208, limits assumed, biotinylated); experiment: SPR, biotin-CD16A on SA chip, 25C, pH 6.0
# T5 construct: also called cynomolgus CD16A
# T5 sequence (Q8SPW2 17-208 limits assumed): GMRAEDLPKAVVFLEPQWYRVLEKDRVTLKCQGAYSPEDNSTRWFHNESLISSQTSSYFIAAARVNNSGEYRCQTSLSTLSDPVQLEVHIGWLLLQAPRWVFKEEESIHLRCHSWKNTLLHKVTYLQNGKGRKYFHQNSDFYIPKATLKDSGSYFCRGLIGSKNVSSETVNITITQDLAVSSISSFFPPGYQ
# Experimental: as §2
Binder,binding result (Human CEACAM6),Kd (CEACAM5 Nterm IgV-His) [nM],kon (CEACAM5 Nterm IgV-His) [M⁻¹ s⁻¹],Kd (CEACAM5 N-A1-B1-His) [nM],kon (CEACAM5 N-A1-B1-His) [M⁻¹ s⁻¹],Kd [1] [nM],koff [1] [s⁻¹],kon [1] [M⁻¹ s⁻¹],Kd (Cyno FcγRIIIA) [nM],koff (Cyno FcγRIIIA) [s⁻¹],kon (Cyno FcγRIIIA) [M⁻¹ s⁻¹],binding result (CEACAM5 Nterm IgV-His)
B1,no binding (tested: up to 600 and 1200 nM),1.4,1.1e+06,5.5,240000,47,0.038,820000,19,0.047,2.4e+06,
B2,no binding (tested: up to 600 and 1200 nM),,,11,150000,58,0.04,690000,25,,,no binding
B3,,0.31,1.4e+06,1.2,360000,36,0.029,830000,16,,,
B4,no binding (tested: up to 600 and 1200 nM),,,,,,,,,,,
